Molecular target: HA-ezrin fused protein (human (cDNA from HEK293T cells)) (UniProt P15311)
UniProt P15311, sequence (P15311 whole entry, the tested form may be a part): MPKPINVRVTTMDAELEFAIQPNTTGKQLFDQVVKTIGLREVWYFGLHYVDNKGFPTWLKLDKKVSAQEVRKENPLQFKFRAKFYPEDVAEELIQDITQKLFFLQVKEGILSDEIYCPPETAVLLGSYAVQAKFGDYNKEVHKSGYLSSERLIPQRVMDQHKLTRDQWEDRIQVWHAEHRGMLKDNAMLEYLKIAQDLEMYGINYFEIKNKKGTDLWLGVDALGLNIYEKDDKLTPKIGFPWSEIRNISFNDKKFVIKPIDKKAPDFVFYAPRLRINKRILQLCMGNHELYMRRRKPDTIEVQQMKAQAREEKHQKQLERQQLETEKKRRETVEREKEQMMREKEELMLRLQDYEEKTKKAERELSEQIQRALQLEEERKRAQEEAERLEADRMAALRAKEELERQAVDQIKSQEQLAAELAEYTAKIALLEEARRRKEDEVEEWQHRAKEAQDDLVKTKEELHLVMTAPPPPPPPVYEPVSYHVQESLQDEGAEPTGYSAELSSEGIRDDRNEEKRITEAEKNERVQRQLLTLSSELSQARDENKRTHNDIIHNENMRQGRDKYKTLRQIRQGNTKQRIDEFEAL

How did the ratio of p-ezrin/total-ezrin in dHL60 cells under BifA treatment (10 μg/mL purified BifA), phos-tag gel and immunoblot, 0 to 2 h (ratio p-ezrin/total-ezrin) turn out when “GFP-BifA fused protein (natural protein)” was run?
Its ratio of p-ezrin/total-ezrin in dHL60 cells under BifA treatment (10 μg/mL purified BifA), phos-tag gel and immunoblot, 0 to 2 h (ratio p-ezrin/total-ezrin) is 1.

Reference: article PMC9138245
